Test [1] deals with human LAG-3 protein (Example 3) (human) (UniProt P18627). The test can be described thus: SPR.
In test [2] the target is human LAG-3 on cells (human) (UniProt P18627). The test can be described thus: FACS on cell surface human LAG-3.
For test [3] the target is unchanged. The experiment in a line: FACS affinity test on cell surface human LAG-3.
The target in test [4] is human LAG-3 protein (Example 3) (human) (UniProt P18627). The experiment in a line: ELISA; blocking of LAG-3 protein binding to LSECtin.
The target is the same in test [5]. The experiment in a line: ELISA; blocking of LAG-3 protein binding to Galectin-3.
For test [6] the target is unchanged. The experiment in a line: FACS; blocking of LAG-3 protein binding to MHC-II on Raji cells. (Flow cytometry measures light scatter and fluorescence of single cells or particles in a stream.)

human LAG-3 protein (Example 3) (human), sequence (P18627 23-450 limits assumed): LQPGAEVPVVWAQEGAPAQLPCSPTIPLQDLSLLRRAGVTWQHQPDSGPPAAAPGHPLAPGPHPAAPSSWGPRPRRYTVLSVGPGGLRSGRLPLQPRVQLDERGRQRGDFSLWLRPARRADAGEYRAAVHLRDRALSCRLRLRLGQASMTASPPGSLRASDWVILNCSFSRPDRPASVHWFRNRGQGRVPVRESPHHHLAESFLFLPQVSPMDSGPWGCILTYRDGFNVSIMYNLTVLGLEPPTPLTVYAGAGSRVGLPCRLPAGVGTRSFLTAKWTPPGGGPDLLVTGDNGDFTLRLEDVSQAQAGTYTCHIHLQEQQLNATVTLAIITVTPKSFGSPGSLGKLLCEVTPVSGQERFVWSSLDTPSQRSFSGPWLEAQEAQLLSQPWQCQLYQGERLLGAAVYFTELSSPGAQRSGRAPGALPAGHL
human LAG-3 on cells (human), sequence (P18627 23-525): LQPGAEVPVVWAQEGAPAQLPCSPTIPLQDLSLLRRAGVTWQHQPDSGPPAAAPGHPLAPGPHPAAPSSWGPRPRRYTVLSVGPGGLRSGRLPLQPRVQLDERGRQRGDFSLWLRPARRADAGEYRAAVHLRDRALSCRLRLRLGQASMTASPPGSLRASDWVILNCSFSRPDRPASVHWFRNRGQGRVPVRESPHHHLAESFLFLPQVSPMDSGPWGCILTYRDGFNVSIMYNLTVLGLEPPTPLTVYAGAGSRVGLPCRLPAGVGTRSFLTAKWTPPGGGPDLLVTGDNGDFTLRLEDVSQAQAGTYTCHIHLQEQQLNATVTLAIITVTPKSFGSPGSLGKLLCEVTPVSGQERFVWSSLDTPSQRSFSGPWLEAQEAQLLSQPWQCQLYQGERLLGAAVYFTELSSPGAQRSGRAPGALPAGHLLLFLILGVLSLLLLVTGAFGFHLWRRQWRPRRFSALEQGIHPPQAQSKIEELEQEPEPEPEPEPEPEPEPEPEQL

B1: BMK7 (antibody, INN chains, looked up, V domains shown)
VH: QVQLVESGGGVVQPGRSLRLSCVASGFTFSSYGMHWVRQAPGKGLEWVAIIWYDGSNKYYADSVKGRFTISRDNSKNTQYLQMNSLRAEDTAVYYCASVATSGDFDYYGMDVWGQGTTVTVSS
VL: EIVLTQSPATLSLSPGERTTLSCRASQRISTYLAWYQQKPGQAPRLLIYDASKRATGIPARFSGSGSGTGFTLTISSLEPEDFAVYYCQQRSNWPLTFGGGTKVEIK
Take B1: the Kd was found to be 0.497 nM in test [1] and 0.58 nM in test [3]. Also, the EC50 in test [2] stood at 0.61 nM; in test [4] it was 0.59 nM; in test [5] it was 0.79 nM; in test [6] it was 1.25 nM.

As usually defined, the Kd is the constant that tells how readily two partners part at equilibrium. Read a low Kd as tighter binding. Usually EC50 stands for the concentration that produces a half-maximal response.

The values are drawn from US20210115138A1.
